# From patent US20180362628A1 (KYMAB, published 2018)
# Positions count from the first letter of the chain named. Like-named read-outs stand apart in the source and are kept apart here. No end group written: not given here. *: point of attachment. Biotin = O=C1N[C@H]2[C@H](CS[C@H]2CCCCC(=O)*)N1
# T1: Peptide #16 (Biotin-SGSGDGNPDPNANPAV)
# T1 construct: alanine scan variant; also called Peptide #16 44300
# T1 peptide: Biotin-SGSGDGNPDPNANPAV
# T2: Peptide #6 (Biotin-SGSGAGNPDPNANPNV)
# T2 construct: alanine scan variant; also called Peptide #6 44290
# T2 peptide: Biotin-SGSGAGNPDPNANPNV
# T3: Peptide #10 (Biotin-SGSGDGNPAPNANPNV)
# T3 construct: alanine scan variant; also called Peptide #10 44294
# T3 peptide: Biotin-SGSGDGNPAPNANPNV
# T4: Peptide #17 (Biotin-SGSGDGNPDPNANPNA)
# T4 construct: alanine scan variant; also called Peptide #17 44301
# T4 peptide: Biotin-SGSGDGNPDPNANPNA
# T5: Peptide #12 (Biotin-SGSGDGNPDPAANPNV)
# T5 construct: alanine scan variant; also called Peptide #12 44296
# T5 peptide: Biotin-SGSGDGNPDPAANPNV
# T6: Peptide #4 (Biotin-SGSGNPDPNANP)
# T6 construct: also called Peptide #4 44285
# T6 peptide: Biotin-SGSGNPDPNANP
# T7: Peptide #3 (Biotin-SGSGHKKLKQPGDGNPDPNANPN) (N-terminal biotin)
# T7 construct: also called Peptide #3 44288
# T7 peptide: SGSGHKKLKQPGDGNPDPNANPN
# T8: Peptide #7 (Biotin-SGSGDANPDPNANPNV)
# T8 construct: alanine scan variant; also called Peptide #7 44291
# T8 peptide: Biotin-SGSGDANPDPNANPNV
# T9: Peptide #1 (Biotin-SGSGKPKHKKLKQPGDGNPDPNANP) (N-terminal biotin)
# T9 construct: also called Peptide #1 44286
# T9 peptide: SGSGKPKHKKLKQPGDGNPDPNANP
# T10: Peptide #15 (Biotin-SGSGDGNPDPNANANV)
# T10 construct: alanine scan variant; also called Peptide #15 44299
# T10 peptide: Biotin-SGSGDGNPDPNANANV
# T11: Peptide #8 (Biotin-SGSGDGAPDPNANPNV)
# T11 construct: alanine scan variant; also called Peptide #8 44292
# T11 peptide: Biotin-SGSGDGAPDPNANPNV
# T12: Peptide #5 (Biotin-SGSGDGNPDPNANPNV), original sequence of the alanine scan
# T12 construct: also called Peptide #5 44289
# T12 peptide: Biotin-SGSGDGNPDPNANPNV
# T13: Peptide #14 (Biotin-SGSGDGNPDPNAAPNV)
# T13 construct: alanine scan variant; also called Peptide #14 44298
# T13 peptide: Biotin-SGSGDGNPDPNAAPNV
# T14: Peptide #9 (Biotin-SGSGDGNADPNANPNV)
# T14 construct: alanine scan variant; also called Peptide #9 44293
# T14 peptide: Biotin-SGSGDGNADPNANPNV
# T15: Peptide #11 (Biotin-SGSGDGNPDANANPNV)
# T15 construct: alanine scan variant; also called Peptide #11 44295
# T15 peptide: Biotin-SGSGDGNPDANANPNV
# B1: Antibody 669, human IgG1 (antibody, V domains shown)
# VH: QVQLVQSGAEVKKPGASVRVSCKASGFTFTSYAMHWVRQAPGQRLEWMGWINAGNGHTKYSQKFQDRVAITRDTSATTVYMDLSSLRSEDTAVYYCTRDGFCTSTTCSDHYGMDVWGQGTTVTVSS
# VL: QSALTQPASVSGSPGQSITISCTGTSSDVGSYNYVSWYQQHPGKAPKFMIYDVSKRPSGVSNRFSGSKSGNTASLTISGLQAEDEADYYCCSYAGSSTWVFGGGTKLTVL
# notes: human IgG1; HEK (Expi293F) product; also called AB-000669; Ab669
# B2: Antibody 666, human IgG1 (antibody, V domains shown)
# VH: QVQLVQSGAEVKKPGASVKVSCKASGYTFTNYAMHWVRQAPGQRLEWMGWINAGNGNTKYSQNFQGRVTITRDTSASTAYMELSSLRSEDTAVYYCARDEYYASGSYYDYYYYGMDVWGQGTTVTVTS
# VL: B1 VL with S31V, Y38F, F48L, D52N, K106N
# notes: human IgG1; also called Ab666
# Key:
# [1] = molecular target: T1, Peptide #16 (Biotin-SGSGDGNPDPNANPAV); experiment: BLI, biotin-peptide on streptavidin sensor, IgG1 in solution, 25 C;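 for Response (nm): antibody solution at 30 µg/mL during association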
# [2] = molecular target: T2, Peptide #6 (Biotin-SGSGAGNPDPNANPNV); experiment: as above
# [3] = molecular target: T3, Peptide #10 (Biotin-SGSGDGNPAPNANPNV); experiment: as above
# [4] = molecular target: T4, Peptide #17 (Biotin-SGSGDGNPDPNANPNA); experiment: as above
# [5] = molecular target: T5, Peptide #12 (Biotin-SGSGDGNPDPAANPNV); experiment: as above
# [6] = molecular target: T6, Peptide #4 (Biotin-SGSGNPDPNANP); experiment: as above
# [7] = molecular target: T7, Peptide #3 …; experiment: as above
# [8] = molecular target: T8, Peptide #7 (Biotin-SGSGDANPDPNANPNV); experiment: as above
# [9] = molecular target: T9, Peptide #1 …; experiment: as above
# [10] = molecular target: T10, Peptide #15 (Biotin-SGSGDGNPDPNANANV); experiment: as above
# [11] = molecular target: T11, Peptide #8 (Biotin-SGSGDGAPDPNANPNV); experiment: as above
# [12] = molecular target: T12, Peptide #5 (Biotin-SGSGDGNPDPNANPNV), …; experiment: as above
# [13] = molecular target: T13, Peptide #14 (Biotin-SGSGDGNPDPNAAPNV); experiment: as above
# [14] = molecular target: T14, Peptide #9 (Biotin-SGSGDGNADPNANPNV); experiment: as above
# [15] = molecular target: T15, Peptide #11 (Biotin-SGSGDGNPDANANPNV); experiment: as above
# [16] = molecular target: T16, Recombinant CSP (Wellcome Trust Sanger Institute, FIG. 22), CSP ectodomain with BirA biotinylation tag, … (Plasmodium falciparum strain 3D7, UniProt Q7K740 19-376, biotinylated at the BirA substrate peptide); experiment: SPR, IgG1 captured, CSP as analyte, 40 C; apparent affinity (avidity)
# T16 construct: extracellular domain; Expressed in HEK293, 45 kDa; order of the tags is that of the legend, not confirmed; also called biotinylated recombinant CSP
# [17] = molecular target: T1, Peptide #16 (Biotin-SGSGDGNPDPNANPAV); experiment: BLI, biotin-peptide on streptavidin sensor, IgG1 in solution, 25 C;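 for Response (nm): antibody solution at 30 µg/mL during association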
# [18] = molecular target: T2, Peptide #6 (Biotin-SGSGAGNPDPNANPNV); experiment: as above
# [19] = molecular target: T3, Peptide #10 (Biotin-SGSGDGNPAPNANPNV); experiment: as above
# [20] = molecular target: T4, Peptide #17 (Biotin-SGSGDGNPDPNANPNA); experiment: as above
# [21] = molecular target: T5, Peptide #12 (Biotin-SGSGDGNPDPAANPNV); experiment: as above
# [22] = molecular target: T6, Peptide #4 (Biotin-SGSGNPDPNANP); experiment: as above
# [23] = molecular target: T7, Peptide #3 …; experiment: as above
# [24] = molecular target: T8, Peptide #7 (Biotin-SGSGDANPDPNANPNV); experiment: as above
# [25] = molecular target: T9, Peptide #1 …; experiment: as above
# [26] = molecular target: T10, Peptide #15 (Biotin-SGSGDGNPDPNANANV); experiment: as above
# [27] = molecular target: T11, Peptide #8 (Biotin-SGSGDGAPDPNANPNV); experiment: as above
# [28] = molecular target: T12, Peptide #5 (Biotin-SGSGDGNPDPNANPNV), …; experiment: as above
# [29] = molecular target: T13, Peptide #14 (Biotin-SGSGDGNPDPNAAPNV); experiment: as above
# [30] = molecular target: T14, Peptide #9 (Biotin-SGSGDGNADPNANPNV); experiment: as above
# [31] = molecular target: T15, Peptide #11 (Biotin-SGSGDGNPDANANPNV); experiment: as above
# [32] = molecular target: T17, full CSP protein (analyte of Example 12) (Plasmodium falciparum (isolate 3D7), UniProt Q7K740 19-374); experiment: SPR, IgG1 from supernatant on anti-human IgG surface, CSP as analyte, 25 C, 1:1 fit
# T17 construct: not shown: C-terminal tags
binder,measurement,setting,value
B1,Response (nm),[1],3.66 nm
same,Response (nm),[2],3.82 nm
same,Response (nm),[3],4.48 nm
same,Response (nm),[4],3.85 nm
same,Response (nm),[5],2.81 nm
same,Response (nm),[6],5.27 nm
same,Response (nm),[7],5.06 nm
same,Response (nm),[8],3.86 nm
same,Response (nm),[9],5.83 nm
same,Response (nm),[10],2.82 nm
same,Response (nm),[11],3.79 nm
same,Response (nm),[12],3.76 nm
same,Response (nm),[13],0.0239 nm
same,binding result,[13],no binding (tested: LOD 0.125 nm)
same,Response (nm),[14],3.68 nm
same,Response (nm),[15],2.18 nm
same,Kd,[16],0.47 nM
same,koff,[16],0.000125 s⁻¹
same,kon,[16],265000 M⁻¹ s⁻¹
B2,Response (nm),[17],2.7 nm
same,Response (nm),[18],3.14 nm
same,Response (nm),[19],5.18 nm
same,Response (nm),[20],2.95 nm
same,Response (nm),[21],0.0943 nm
same,Response (nm),[22],7.06 nm
same,Response (nm),[23],6.53 nm
same,Response (nm),[24],2.99 nm
same,Response (nm),[25],9.06 nm
same,Response (nm),[26],0.862 nm
same,Response (nm),[27],2.23 nm
same,Response (nm),[28],2.4 nm
same,Response (nm),[29],0.0116 nm
same,binding result,[29],no binding (tested: LOD 0.020 nm)
same,Response (nm),[30],1.75 nm
same,Response (nm),[31],0.982 nm
same,Kd,[16],0.18 nM
same,koff,[16],1.7e-05 s⁻¹
same,kon,[16],97000 M⁻¹ s⁻¹
same,kon,[32],1e+08 M⁻¹ s⁻¹
